Assay [1] addresses human melanocortin-4 (MC4) receptor (human).
Assay [2] deals with human melanocortin-1 (MC1) receptor (human).

In assay [1], Pro^11 γ-MSH (peptide) yielded an EC50 of cAMP response in transfected Hepa cells of 100 nM and an efficacy of cAMP response in transfected Hepa cells (% of the maximum response of α-MSH) of 75.

As for β-MSH (peptide), the cAMP generation in transfected L-cells (fold lower potency) in assay [2] was determined as 10.

For the substance γ-MSH (peptide), in assay [1], the EC50 of cAMP response in transfected Hepa cells turned out to be 20 nM and the efficacy of cAMP response in transfected Hepa cells (% of the maximum response of α-MSH) stood at 45.

(Values after US5703220.)
